Data: patent publication US20250074980A1 (BRIGHAM AND WOMEN S HOSPITAL, published 2025)
Numbering of substitutions follows the chain as printed. Numbers in names are those of the source.

T1: CEACAM1 on transfected HeLa cells (human, UniProt P13688 35-526)
T1 construct: also called HeLa-CEACAM1; HeLa C1
T1 sequence: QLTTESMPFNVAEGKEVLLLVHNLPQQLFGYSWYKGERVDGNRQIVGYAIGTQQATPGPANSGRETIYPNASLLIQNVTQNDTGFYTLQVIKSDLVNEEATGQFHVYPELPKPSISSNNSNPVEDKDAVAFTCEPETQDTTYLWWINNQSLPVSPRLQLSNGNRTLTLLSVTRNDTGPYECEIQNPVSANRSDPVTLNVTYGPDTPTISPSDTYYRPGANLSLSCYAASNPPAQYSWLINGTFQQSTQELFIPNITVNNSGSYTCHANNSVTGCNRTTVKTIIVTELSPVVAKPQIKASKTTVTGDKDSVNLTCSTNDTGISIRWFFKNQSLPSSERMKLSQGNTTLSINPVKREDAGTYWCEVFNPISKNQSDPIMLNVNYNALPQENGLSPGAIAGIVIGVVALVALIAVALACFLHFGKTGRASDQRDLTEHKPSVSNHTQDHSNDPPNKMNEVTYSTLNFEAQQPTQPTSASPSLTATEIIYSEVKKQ

T2: CEACAM6 on transfected HeLa cells (human, UniProt P40199 35-320)
T2 construct: whole, on cells; also called HeLa-CEACAM6; HeLa C6
T2 sequence (looked up): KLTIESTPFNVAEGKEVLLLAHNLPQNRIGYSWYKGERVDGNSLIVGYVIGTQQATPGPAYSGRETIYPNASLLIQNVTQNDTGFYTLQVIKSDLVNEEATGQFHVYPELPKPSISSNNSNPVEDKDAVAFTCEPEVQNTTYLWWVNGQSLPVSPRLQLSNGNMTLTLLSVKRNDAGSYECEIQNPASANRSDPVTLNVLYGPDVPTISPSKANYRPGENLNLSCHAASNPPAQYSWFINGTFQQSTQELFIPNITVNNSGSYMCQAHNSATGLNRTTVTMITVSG

T3: His-tagged CEACAM1 (human, UniProt P13688 35-428)
T3 construct: 45 kDa SPR analyte; also called CEACAM1-HIS; CEACAM1 analyte
T3 sequence: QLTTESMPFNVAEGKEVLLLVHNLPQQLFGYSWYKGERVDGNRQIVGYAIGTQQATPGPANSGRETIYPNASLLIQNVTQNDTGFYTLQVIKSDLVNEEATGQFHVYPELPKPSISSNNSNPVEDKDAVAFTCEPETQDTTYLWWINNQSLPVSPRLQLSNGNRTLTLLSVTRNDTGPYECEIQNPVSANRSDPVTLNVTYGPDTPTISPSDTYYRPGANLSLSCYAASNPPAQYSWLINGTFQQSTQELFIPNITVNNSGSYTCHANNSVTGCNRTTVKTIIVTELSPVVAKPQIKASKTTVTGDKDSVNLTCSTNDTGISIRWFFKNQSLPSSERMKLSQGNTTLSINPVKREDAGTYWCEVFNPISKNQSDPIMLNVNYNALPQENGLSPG

B1: chimeric antibody VH0/Vκ0 (antibody, IgG4, V domains shown)
VH: EVQLVESGGDLVKPGGSLKLACAASGFIFSSHGMSWVRQTPDKRLEWVATISSGGTYTYYPDSVKGRFTISRDNDKNTLYLQMNSLKSEDTAMYYCARHDFDYDAAWFAYWGQGTLVTVSS
VL: QIVLTQSPALMSASPGVKVTMTCSANSSVSYMYWYRQKPRSSPKPWIYLTSNLASGVPARFSGSGSGTSYSLTISSMEAEDAATYYCQQWSSNPPTFGSGTKLEIK
notes: IgG4 (S241P), kappa; also called VH0/Vκ0 (control); Chimeric VH0/Vκ0
B2: VH1/Vκ8 S29A (antibody, IgG4, V domains shown)
VH: B1 VH with V5L, D10G, K13Q, K19R, A21S, T40A, D42G, R44G, D75S, S88A
VL: EIVLTQSPATLSLSPGERATLSCRANSAVSYMYWYQQKPGQAPRPWIYLTSNRATGVPARFSGSGSGTDYTLTISSLEPEDFAVYYCQQWSSNPPTFGQGTKLEIK
notes: IgG4 (S241P), kappa; also called Parent; Parent (VH1/Vκ8 S29A)
B3: CP08H03/CP08F05 (antibody, V domains shown)
VH: EVQLLESGGGLVQPGGSLRLSCAASGFIFSSHGMSWVRQAPGKGLEWVATISSGGTYTYYPDSVKGRFTISRDNSKNTLYLQMNSLKAEDTAMYYCARHDFDYFPYWFAHWGQGTLVTVSS
VL: B2 VL with S91T
notes: IgG4 (S241P), kappa
B4: CP08H03/Vκ8 S29A (antibody, IgG4, V domains shown)
VH: B3 VH
VL: B2 VL
notes: IgG4 (S241P), kappa; also called CP08_H03/Parent VL; CP08_H03/Parental

Key:
[1] = biological target: T1, CEACAM1 on transfected HeLa cells; experiment: flow cytometry, transfected HeLa
[2] = biological target: T2, CEACAM6 on transfected HeLa cells; experiment: flow cytometry, transfected HeLa
His-tagged CEACAM1 = biological target: T3, His-tagged CEACAM1; experiment: SPR single-cycle, supernatant IgG captured
Outline: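 Humanized, affinity-matured IgGs from crude supernatant (0.5 μg/ml in HBS-P+) captured on Protein A to ~100 RU. Single-cycle kinetics: CEACAM1 at three concentrations, 70–280 nM two-fold, 80 μl/min, 80 s association each, 150 s dissociation. Reference-channel and blank-run subtraction applied.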

[3] = biological target: T2, CEACAM6 on transfected HeLa cells; experiment: flow cytometry, HeLa-CEACAM6 transfectants, % staining, stacked bars
Description: FIG. 11 illustrates the binding selectivity of different affinity-matured CEACAM1 antibodies. […] HELA cells were transfected with vector alone (HeLa-Neo) or vectors expressing CEACAM1, CEACAM3, CEACAM5, or CEACAM6, respectively, and stained with the indicated antibodies. […] MOPC=mouse IgG1 control antibody. Mouse antibodies as positive control for transfected CEACAM isoforms: Col-1=CEACAM3 and CEACAM5 antibody. 9A6=CEACAM6 antibody. T84.1=CEACAM cross-reactive antibody and T84.66=CEACAM5 antibody. Only 2nd FITC=No primary antibody, only secondary FITC conjugated antibody. […] Data for affinity-matured antibodies 9B3_8H3/Vκ8 S29A, 8H3_9B3/CP08_E05, and 8H3_9C2/CPO08_F05, as well as data for CEACAM8 antibody 80H3 were omitted from the FIG. due to an unusually high background signal.

Binder	relative amount of cells bound [1]	relative amount of cells bound [2]	Kd (His-tagged CEACAM1) [nM]	koff (His-tagged CEACAM1) [s⁻¹]	kon (His-tagged CEACAM1) [M⁻¹ s⁻¹]	relative KD to parent (His-tagged CEACAM1)	binding result [3]
B1	78	0.3	–	–	–	–	–
B2	–	–	590	0.057	95000	1	no binding
B3	–	–	–	–	–	–	no binding
B4	–	–	45	0.0076	180000	13.7	–
